Data on two molecules can be found in PMC3617563 (Biochemistry, 2012).

Where a chain is given by its changes, count along the chain named. Numbers in names are those of the source. Read-outs that look alike come from different tables or passages of the source.

A word on the koff: it is the rate constant with which the complex falls apart. As usually defined, the kon is a measure of how fast the partners come together. For orientation: Kd means a measure of binding affinity in units of concentration. Read a low Kd as higher affinity.

Assay [1] has as its target T1, native ubiquitin (monoubiquitin) (UniProt P0CG48 1-76). The assay can be described thus: stopped-flow fluorescence.
Assay [2] concerns the target T2, Ub-AMC (ubiquitin-7-amino-4-methylcoumarin) (human, UniProt P0CG48 1-75, 7-amino-4-methylcoumarin (AMC) on the C-terminal glycine). The assay can be described thus: other fluorescence titration.
Assay [3] addresses T1, native ubiquitin (monoubiquitin). The assay can be described thus: stopped-flow fluorescence. The source holds these as a separate data set.
In assay [4] the target is T2, Ub-AMC …. The assay can be described thus: stopped-flow fluorescence.
The target in assay [5] is T2, Ub-AMC …. The assay can be described thus: stopped-flow fluorescence. This is another data set of the same source.

B1: wild-type USP2 catalytic core (human ubiquitin-specific protease 2, amino acids 259 to 605) (domain or fragment, UniProt O75604 259-605, looked up)
chain: NSKSAQGLAGLRNLGNTCFMNSILQCLSNTRELRDYCLQRLYMRDLHHGSNAHTALVEEFAKLIQTIWTSSPNDVVSPSEFKTQIQRYAPRFVGYNQQDAQEFLRFLLDGLHNEVNRVTLRPKSNPENLDHLPDDEKGRQMWRKYLEREDSRIGDLFVGQLKSSLTCTDCGYCSTVFDPFWDLSLPIAKRGYPEVTLMDCMRLFTKEDVLDGDEKPTCCRCRGRKRCIKKFSIQRFPKILVLHLKRFSESRIRTSKLTTFVNFPLRDLDLREFASENTNHAVYNLYAVSNHSGTTMGGHYTAYCRSPGTGEWHTFNDSSVTPMSSSQVRTSDAYLLFYELASPPSRM
In assay [1], B1 displayed an off-rate constant (koff) of 2.64 ± 0.56 s⁻¹ and a kon of 400000 ± 10000 M⁻¹ s⁻¹.

B2: C276A USP2 catalytic core (inactive active-site mutant) (domain or fragment, human, UniProt O75604 259-605, looked up)
chain: B1 chain with C18A
B2: the results for the equilibrium dissociation constant (Kd) in assay [2] and in assay [5] were 2.9 ± 0.6 µM and 5.5 µM, respectively. For the same molecule, the koff in assay [3] is 7.54 ± 2.6 s⁻¹; in assay [4], 1.82 ± 0.17 s⁻¹. Also, the kon in assay [3] amounted to 480000 ± 50000 M⁻¹ s⁻¹; in assay [4], 330000 ± 20000 M⁻¹ s⁻¹.
